Measured values taken from US20260273029A1, “DRY EYE TREATMENT” (Inoculus Ventures, LLC, priority 2022, published 2026).

Legend:
S. Aureus biofilms [1] = conditions: existing data; cited from earlier work
S. Aureus biofilms [2] = experiment: Preliminary assessment of amylases on biofilms: reduction of existing biofilm; type: cell-based; conditions: for Reduces Biofilm: Table 1, preliminary assessment of activity on Biofilms
Description: (§1) Non-limiting examples of amylases contemplated by the disclosure and their preliminary assessment of their activity on Biofilms is listed on Table 1: […]

S. Aureus biofilms [3] = experiment: Preliminary assessment of amylases on biofilms: prohibition of biofilm growth; type: cell-based; conditions: Table 1, preliminary assessment of activity on Biofilms
Description: as §1

B1: α-Amylase from Bacillus subtilis: α-amylase from Bacillus subtilis (Sigma, catalog #10070) (protein, UniProt P00691 42-659, looked up)
Alpha-amylase: LTAPSIKSGTILHAWNWSFNTLKHNMKDIHDAGYTAIQTSPINQVKEGNQGDKSMSNWYWLYQPTSYQIGNRYLGTEQEFKEMCAAAEEYGIKVIVDAVINHTTSDYAAISNEVKSIPNWTHGNTQIKNWSDRWDVTQNSLLGLYDWNTQNTQVQSYLKRFLDRALNDGADGFRFDAAKHIELPDDGSYGSQFWPNITNTSAEFQYGEILQDSASRDAAYANYMDVTASNYGHSIRSALKNRNLGVSNISHYASDVSADKLVTWVESHDTYANDDEESTWMSDDDIRLGWAVIASRSGSTPLFFSRPEGGGNGVRFPGKSQIGDRGSALFEDQAITAVNRFHNVMAGQPEELSNPNGNNQIFMNQRGSHGVVLANAGSSSVSINTATKLPDGRYDNKAGAGSFQVNDGKLTGTINARSVAVLYPDDIAKAPHVFLENYKTGVTHSFNDQLTITLRADANTTKAVYQINNGPETAFKDGDQFTIGKGDPFGKTYTIMLKGTNSDGVTRTEKYSFVKRDPASAKTIGYQNPNHWSQVNAYIYKHDGSRVIELTGSWPGKPMTKNADGIYTLTLPADTDTTNAKVIFNNGSAQVPGQNQPGFDYVLNGLYNDSGLSGSLPH
in-vitro effectiveness at the inhibition and reduction of S. Aureus biofilms (S. Aureus biofilms [1]): certain in-vitro effectiveness
Reduces Biofilm, time (S. Aureus biofilms [2]; Table 1, reduces biofilm only after this time): ≥ 3 h
Prohibits Biofilm Growth (S. Aureus biofilms [3]): Yes

B2: β-Amylase from sweet potato: β-Amylase from sweet potato, Sigma Aldrich research grade (protein, UniProt P10537 2-499, looked up)
Beta-amylase: APIPGVMPIGNYVSLYVMLPLGVVNADNVFPDKEKVEDELKQVKAGGCDGVMVDVWWGIIEAKGPKQYDWSAYRELFQLVKKCGLKIQAIMSFHQCGGNVGDAVFIPIPQWILQIGDKNPDIFYTNRAGNRNQEYLSLGVDNQRLFQGRTALEMYRDFMESFRDNMADFLKAGDIVDIEVGCGAAGELRYPSYPETQGWVFPGIGEFQCYDKYMVADWKEAVKQAGNADWEMPGKGAGTYNDTPDKTEFFRPNGTYKTDMGKFFLTWYSNKLIIHGDQVLEEANKVFVGLRVNIAAKVSGIHWWYNHVSHAAELTAGFYNVAGRDGYRPIARMLARHHATLNFTCLEMRDSEQPAEAKSAPQELVQQVLSSGWKEYIDVAGENALPRYDATAYNQMLLNVRPNGVNLNGPPKLKMSGLTYLRLSDDLLQTDNFELFKKFVKKMHADLDPSPNAISPAVLERSNSAITIDELMEATKGSRPFPWYDVTDMPVDGSNPFD
in-vitro effectiveness at the inhibition and reduction of S. Aureus biofilms (S. Aureus biofilms [1]): certain in-vitro effectiveness
Reduces Biofilm (S. Aureus biofilms [2]): No
Prohibits Biofilm Growth (S. Aureus biofilms [3]): Partially

B3: α-Amylase from human saliva: α-amylase from human saliva (Sigma, catalog #A1031) (protein, UniProt P0DUB6 16-511, looked up)
Alpha-amylase 1A: QYSSNTQQGRTSIVHLFEWRWVDIALECERYLAPKGFGGVQVSPPNENVAIHNPFRPWWERYQPVSYKLCTRSGNEDEFRNMVTRCNNVGVRIYVDAVINHMCGNAVSAGTSSTCGSYFNPGSRDFPAVPYSGWDFNDGKCKTGSGDIENYNDATQVRDCRLSGLLDLALGKDYVRSKIAEYMNHLIDIGVAGFRIDASKHMWPGDIKAILDKLHNLNSNWFPEGSKPFIYQEVIDLGGEPIKSSDYFGNGRVTEFKYGAKLGTVIRKWNGEKMSYLKNWGEGWGFMPSDRALVFVDNHDNQRGHGAGGASILTFWDARLYKMAVGFMLAHPYGFTRVMSSYRWPRYFENGKDVNDWVGPPNDNGVTKEVTINPDTTCGNDWVCEHRWRQIRNMVNFRNVVDGQPFTNWYDNGSNQVAFGRGNRGFIVFNNDDWTFSLTLQTGLPAGTYCDVISGDKINGNCTGIKIYVSDDGKAHFSISNSAEDPFIAIHAESKL
in-vitro effectiveness at the inhibition and reduction of S. Aureus biofilms (S. Aureus biofilms [1]): certain in-vitro effectiveness
Reduces Biofilm (S. Aureus biofilms [2]): No
Prohibits Biofilm Growth (S. Aureus biofilms [3]): Yes
